6 molecules from PMC1636435 (Nucleic Acids Research, 2006) can be followed below.

Sequences and labels used below:
B1: RAD51AP1-C89 (C-terminal 89 amino acids of human RAD51AP1) (domain or fragment)
chain: APAAVKSESQSLPKKVSLSSDTTRKPLEIRSPSAESKKPKWVPPAASGGSRSSSSPLVVVSVKSPNQSLRLGLSRLARVKPLHPNATST
B2: human RAD51 (Gal4 two-hybrid fusion) (natural protein)
chain: MAMQMQLEANADTSVEEESFGPQPISRLEQCGINANDVKKLEEAGFHTVEAVAYAPKKELINIKGISEAKADKILAEAAKLVPMGFTTATEFHQRRSEIIQITTGSKELDKLLQGGIETGSITEMFGEFRTGKTQICHTLAVTCQLPIDRGGGEGKAMYIDTEGTFRPERLLAVAERYGLSGSDVLDNVAYARAFNTDHQTQLLYQASAMMVESRYALLIVDSATALYRTDYSGRGELSARQMHLARFLRMLLRLADEFGVAVVITNQVVAQVDGAAMFAADPKKPIGGNIIAHASTTRLYLRKGRGETRICKIYDSPCLPEAEAMFAINADGVGDAKD
B3: human RAD51AP1 (Gal4 two-hybrid fusion, all of RAD51AP1) (natural protein)
chain: MVRPVRHKKPVNYSQFDHSDSDDDFVSATVPLNKKSRTAPKELKQDKPKPNLNNLRKEEIPVQEKTPKKRMALDDKLYQRDLEVALALSVKELPTVTTNVQNSQDKSIEKHGSSKIETMNKSPHISNCSVASDYLDLDKITVEDDVGGVQGKRKAASKAAAQQRKILLEGSDGDSANDTEPDFAPGEDSEDDSDFCESEDNDEDFSMRKSKVKEIKKKEVKVKSPVEKKEKKSKSKCNALVTSVDSAPAAVKSESQSLPKKVSLSSDTTRKPLEIRSPSAESKKPKWVPPAASGGSRSSSSPLVVVSVKSPNQSLRLGLSRLARVKPLHPNATST

Common to all, as to experiment: two-hybrid
The target in assay [1] is human RAD51 (Gal4 two-hybrid fusion) (human) (UniProt Q06609).
Assay [2] deals with RAD51AP2-C33 (C-terminal 33 amino acids of human RAD51AP2) (human) (UniProt Q09MP3).
Assay [3] has as its target RAD51AP2-C92 (last 92 amino acids of human RAD51AP2) (human) (UniProt Q09MP3).
The target in assay [4] is Two larger fragments, each containing RAD54 79-118.
Assay [5] has as its target human RAD51AP1 (Gal4 two-hybrid fusion, all of RAD51AP1) (human) (UniProt Q96B01).
The target in assay [6] is Saccharomyces cerevisiae RAD51 (Gal4 two-hybrid fusion) (Saccharomyces cerevisiae) (UniProt P25454).
Assay [7] concerns the target human DMC1 (Gal4 two-hybrid fusion) (human) (UniProt Q14565).
Assay [8] deals with B2.
Assay [9] concerns the target B3.
The target of assay [10] is T1, RAD51AP1-C25 (C-terminal 25 residues of human RAD51AP1) (human, UniProt Q96B01-2 311-335).
T1 chain: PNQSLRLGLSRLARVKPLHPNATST

The target of assay [11] is B1.

Chain of RAD51AP2-C33 (C-terminal 33 amino acids of human RAD51AP2) (human) (Q09MP3 whole entry): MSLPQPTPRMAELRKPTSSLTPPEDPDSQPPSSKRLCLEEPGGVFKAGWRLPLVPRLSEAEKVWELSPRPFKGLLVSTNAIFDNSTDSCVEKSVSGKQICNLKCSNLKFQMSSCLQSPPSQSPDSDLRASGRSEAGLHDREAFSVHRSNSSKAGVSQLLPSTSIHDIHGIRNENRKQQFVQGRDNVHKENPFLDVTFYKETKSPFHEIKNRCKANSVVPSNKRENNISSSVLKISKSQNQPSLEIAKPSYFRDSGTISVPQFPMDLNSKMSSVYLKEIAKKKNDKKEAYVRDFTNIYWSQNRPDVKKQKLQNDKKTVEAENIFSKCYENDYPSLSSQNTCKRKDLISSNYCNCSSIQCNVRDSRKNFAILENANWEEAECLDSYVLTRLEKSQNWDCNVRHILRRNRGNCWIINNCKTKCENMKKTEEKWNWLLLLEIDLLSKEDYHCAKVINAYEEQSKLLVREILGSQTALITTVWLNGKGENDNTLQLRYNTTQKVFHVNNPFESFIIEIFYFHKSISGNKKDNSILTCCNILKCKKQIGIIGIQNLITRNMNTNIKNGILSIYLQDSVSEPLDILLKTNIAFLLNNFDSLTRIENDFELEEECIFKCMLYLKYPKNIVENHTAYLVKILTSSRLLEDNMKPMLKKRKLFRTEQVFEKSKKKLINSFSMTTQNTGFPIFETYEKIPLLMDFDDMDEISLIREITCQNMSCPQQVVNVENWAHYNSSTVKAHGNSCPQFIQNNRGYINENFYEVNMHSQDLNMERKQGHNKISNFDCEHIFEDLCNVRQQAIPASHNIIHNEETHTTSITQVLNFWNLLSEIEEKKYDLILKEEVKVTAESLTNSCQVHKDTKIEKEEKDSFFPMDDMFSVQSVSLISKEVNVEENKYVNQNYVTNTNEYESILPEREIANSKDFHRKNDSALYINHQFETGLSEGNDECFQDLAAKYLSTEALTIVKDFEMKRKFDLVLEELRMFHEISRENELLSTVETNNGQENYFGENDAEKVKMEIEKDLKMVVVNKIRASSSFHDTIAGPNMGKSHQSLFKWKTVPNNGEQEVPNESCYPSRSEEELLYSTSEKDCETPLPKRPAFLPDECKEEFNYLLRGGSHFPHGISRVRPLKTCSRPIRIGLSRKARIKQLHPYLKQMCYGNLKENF
Chain of Saccharomyces cerevisiae RAD51 (Gal4 two-hybrid fusion) (Saccharomyces cerevisiae) (P25454 whole entry, the tested form may be a part): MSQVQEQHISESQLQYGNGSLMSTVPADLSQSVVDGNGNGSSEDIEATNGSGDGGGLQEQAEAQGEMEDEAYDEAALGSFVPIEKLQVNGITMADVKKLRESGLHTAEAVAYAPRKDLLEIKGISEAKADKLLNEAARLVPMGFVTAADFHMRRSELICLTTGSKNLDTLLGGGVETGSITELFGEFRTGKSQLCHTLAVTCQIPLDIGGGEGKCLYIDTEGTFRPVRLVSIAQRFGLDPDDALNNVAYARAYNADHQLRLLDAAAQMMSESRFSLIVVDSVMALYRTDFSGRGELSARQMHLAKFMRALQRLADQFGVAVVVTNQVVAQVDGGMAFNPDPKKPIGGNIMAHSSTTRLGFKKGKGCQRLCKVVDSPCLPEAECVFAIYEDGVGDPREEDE
Chain of RAD51AP2-C92 (last 92 amino acids of human RAD51AP2) (human) (Q09MP3 1068-1159): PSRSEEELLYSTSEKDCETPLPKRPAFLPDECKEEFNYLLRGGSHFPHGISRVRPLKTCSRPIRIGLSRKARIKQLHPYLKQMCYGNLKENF
Chain of human DMC1 (Gal4 two-hybrid fusion) (human) (Q14565 whole entry, the tested form may be a part): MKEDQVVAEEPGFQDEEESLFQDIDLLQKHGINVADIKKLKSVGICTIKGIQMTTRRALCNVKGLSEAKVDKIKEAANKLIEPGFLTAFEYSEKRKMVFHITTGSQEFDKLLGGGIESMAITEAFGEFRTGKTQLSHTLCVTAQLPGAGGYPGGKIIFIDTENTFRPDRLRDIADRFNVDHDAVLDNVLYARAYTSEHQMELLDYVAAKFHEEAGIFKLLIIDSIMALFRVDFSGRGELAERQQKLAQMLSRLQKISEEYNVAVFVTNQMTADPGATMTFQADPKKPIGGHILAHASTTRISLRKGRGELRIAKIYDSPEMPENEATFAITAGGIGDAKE

“RAD51AP2-C92 (last 92 amino acids of human RAD51AP2) (from UniProt Q09MP3 1068-1159) (domain or fragment)” registered a units of β-galactosidase (units of β-galactosidase) in [1] of 143.
As to “human RAD51 (Gal4 two-hybrid fusion) (from UniProt Q06609 1-339) (natural protein)”, the results for the units of β-galactosidase (units of β-galactosidase) in assay [2] and in assay [3] were 395 and 521, respectively. The percent of the interaction of RAD54-N142 with RAD51 in assay [4] was greater than 70%.
For “RAD51AP2-C321 (C-terminal 321 amino acids of human RAD51AP2) (from UniProt Q09MP3 839-1159) (domain or fragment)”, the units of β-galactosidase (units of β-galactosidase) is less than 0.3 in [5], 301 in [1], less than 0.3 in assay [6] and less than 0.3 in assay [7].
As to B1, the “units of β-galactosidase” value in assay [8] is 24.6 units of β-galactosidase.
Take B2: the “units of β-galactosidase” value in assay [9] was 590 units of β-galactosidase; in assay [10] it was 473 units of β-galactosidase; in assay [11], 420 units of β-galactosidase.
For B3, in assay [8], the “units of β-galactosidase” value is 111 units of β-galactosidase.
